The DeepSol protein solubility set

Assay: soluble on expression in E. coli; label from the status in PepcDB or PDB records

Soluble on expression in E. coli, not soluble:
MGSDKIHHHHHHMNLTELMERIPHLREILNIVREAFKDYDDPAHDISHTFRVMENASEIASREKCDLQKAIIAALLHDIKRPHEALTGVDHAESGAEYASGLLPTMGFDISFVAEVSKAIRSHRYSGGLTPTSLTGKILQDADRLDAIGAVAIARVFSYSGKTGTPLHSLQFSPRSSYSGNSRSSINHFHEKILKIRPETFWTETARKMAEDRYSFVVEFVQRFLAEWGQI
MGSDKIHHHHHHMNLVMEKTFEQYEKLFSMEEQKREDVFRYTMMRPFEKMWTAIQVPLKAKEPNGYDVIMAAKMLGYLDVRDAESGQKALQILKESHVSETAESALRQCIFFAEREQLRVNAKEIKFGLYIADPNKLQLQKGYCGFGGIPGFIHVWINPNSYNLPRIPSIIAHEFHHNVRFSYIDFHHGSVSVGDYLVIEGLAESFARELFGTERLGPWVTRFDHEDLQYSIDVINEVLDVKGFSEVSRYMFGDPIANDQGFKPAGLSAFAGYAVGYHAVQSFMNQHHITISEATRLDAKTIISQCGLFLHEKSVTYSGAF
MGSDKIHHHHHHMNLYQTKLFTTLQKEYKNKYGVDISQFVKLTNSSINFDKFEEEQLTLKQKNVIKSIKKNNEKKIILSGGIASGKTYLACYLFLKSLIEIKKLYSSDTNNFIIGNSQRSVEVNVLGQFEKLCKLLKIPYIPRHTNNSYILIDSLRINLYGGDKASDFERFRGSNSALIFVNEATTLHKQTLEEVLKRLRCGQETIIFDTNPDHPEHYFKTDYIDNIATFKTYKFTTYDNVLLSKGFVETQEKLYKDIPSYKARVLLGEWIASTDSIFTQINITDDYVFTSPIAYLDPAFSVGGDNTALCVMERVDDKYYAFVFQDQRPANDPYIMNMVKTVIENFNVHTLYLEDRDNTKGAGGLTREYILLRSNISQYFRIVPVKPKSNKFSRITTLITPFTYKKLYITKYSSSSVFNDIYSYKGDNKTHDDALDAISAAYLMLSLGYRERSVHFGNQRFL
MGSDKIHHHHHHMNMFLGEGWQVKPAGGATGEAYIAEQGEQRLFLKRNSSPFLAVLSAEGIVPKLLWTKRLENGDVITAQRWVYGRELKAFEMKEPNVAHLLAKIHHSVELLDMFKRMGNDMLTPQRIIDDLKASMKRHECDDLLFQKGLKFLQTQQEAVNQEQYVVCHCDINHNNWMMSDAGELYLIDWDGATVADPALDLGLLLYSYVPRHEWKTWLANYGLEMSDHLLLRMHWYVVSQTISVMLSNMDRGKHAEAETWQDFLKTLLDDSF
MGSDKIHHHHHHMNNNIPLRALQIFEACARLESCSLAANELCITQSAVSQQIKQLEDYFLEKLFYRQGGKINLTEAGIELRERLAPVFYDLNSVCSSLVQNMAGEVRVHSYTSLAARWLVPKMEQLRQMYPELNINVGMFQNDIEMSDMIADIFIVTRECQDGYTIIPLVTEKLVAFCSPDYLAQSQGISLATLDQHCLLYSKHKDYGVDWDTWFRNNDIAISPNQKKIFFNHNMLAVQAAIYGQGIVLGLEQTLKVELDSGNLVKLDLPTCLSGLTYYIAYKTSKKRDARIMRIVDWIIDNYPGDHPGDRTLAR
MGSDKIHHHHHHMNNTTENGQYFVAAFEPGAEHPALPTWASCNDNGAELALSAPSTVSKKPLTDVPGAFQLLNVLSADECQRLISVSETMGFLPDAAVSLPRNVRHNDSLTWVVDNTTERLIWDRIAGVMTDDLGIFEGKAALGLNNRFRFYRYNEGDYFKPHSDGSWPGSQVIDGELVRDAFGDRYSQLTFLILLTEDFEGGATRFLVNADKPNLPAKHGDNMRQVDVRTPAGSVLCFPHGMHPLHCIHSSEPIFSGVKYIIRTDVLFEL
MGSDKIHHHHHHMNQKNILTWGDVAYASRIATGGSKQEWEALELIWQAWEIIIYTGLATYSNKRELLLVVIRFFAIVSFYLEFFNDYYWEYYINNYSREWLKGIHIIPDYNEYIIDCVNGLCCPILPKSEPNNLLLYFVENALQQVMQVPMDSLNSDSMIFKSVWEISHQQFQLDGDIYELQRREAELISESIFLDKIINLAEIHENYNQNNEFIRDEAAIIEIFFDEDNTDLEWMKCTNHIDFQKSQEVIDATNKFIAFFSCYQIKPNFSLKHCSEIIGFNETDLKRWIRTINRKKQIILSGSPGTGKTFIAKHLAEHLIGGSDGFSELLQFHPTYSYEDFIQGIRPQSQDGQLTYPLVPGRFLKFCKEAEYHQGTCVLIIDEINRANLAQVFGELMYLLEYRNREIPLAGGNTFRIPENVRIIGTMNTADRSIANIDHALRRRFAFIELRPNYDVLRRYHQKRGFAVEGLINILQQLNQAIADKNYEIGISFFLTDNLREDMDDIWPMEIEPYLEEYFFNQLAKVDEFRWDKIKDKLWI
MGSDKIHHHHHHMNRFIIADASKCIGCRTCEVACVVSHQEHQDCASLTPHTFQPRIHVIKGVNVSTATACRQCEDAPCANVCPNGAISRDKGFVHVMQERCIGCKTCVVACPYGAMEVVVRPVIRHSGAGLNVVAEKAEANKCDLCFHRESGPACMEVCPTHALVCVDRNKLEQMNIEKRRRTALAW
MGSDKIHHHHHHMNSGDIPATATFVNGTVNEKAATPRIPHQRPEGCPVSITRDSRAVALLWSFMNNDSSSRIAARLREWIATAAPGARLPSTRSLVAGYQASPVTVQKALQSLTAQGLIESRPGVGTFVRAVRTARPSDYGWQTAALRSPLAPLPSASTTMRDVANNAIAFHSGYPDRELLPERLVRAALTRAARGDAALSRPPAAGLPELQSWFARELGASTPAGTTPPNPSDVVVLPGSQSGLSSIFSALAGRGQPLLMESPTYWGAILAAAQAGVRVVPVPSGPDGPDPAELARAFDETGARLFYAQPNYANPTGAQWAPGRGEEVLEVVRGKGAFLVEDDWAHDFGITTSPVPVASRDDSGHVVYLRSLTKSVSPAIRIAAVIARGPARERILADRAAESMYVSGLLQAAALDVVTQPGWQTHLRSLRHQLQARRDLLVTSIREHAPQAHIEQVPKGGLNLWARLPDATDLDRLTRDCESRGVIIAAGREWFPAEPAGAFIRLNYSGSNPGAFPEGARIIGESIERNSS
MGSDKIHHHHHHMNTAAIYRQYQTYVRSDKSGWALDGCSDSALIAQAKQPGLHLKMCINRFDSGITLSRMRGGGTGAFPTEIHNFSHNCALFVMVSGQNRLQMGGREYRPSAGEIWLVRGELADVSETLLPDSGGMCALHLDFSLEKLRRWHDEGLLDERLFSPQTIGRFALQRLAQNAGTLTAAACPLLQRPFESDGFGLLADEADALELSARLLRFTFRRHDNGYRRRRIDEAADILNSEFARPLTIAEIARRVGLNECYLKRYFKAQTGETVAGRLRRLRLEHALALIESGSTIQAAMHFCGYRHAGRFNEAFRRHYGFLPSDVKKC
MGSDKIHHHHHHMNTLEKRQHEILTNPLHFCKKSGDFAKHSMSIKLSKNELFDVDFVTGIYFVEKGIVMKGTQIDDYIGYDQLLKPGDVCNFSSFMSSDLKRNIGAQLLSPSSSVITAVDRDFFIFMVEKHVSVEEFMLYQAKKEIMILQRRCLLNTLKVKDRVKHLIAAIGYEYGISNGDNIQIPQELSTTFLSKFMGITREYLSLTLSELKKEDYLLNTKIPVVINVEKLFNEIPYESLIL
MGSDKIHHHHHHMNVAILGNQARAMVNFWSVFIARLQADGHTVVCIIPPGDAEGDAALTSMGVRVRHYPLDRKGLNPVRDVATFAALYRIFRQERPDRLFCFTIKPVIYGATAAALARVPGRVAMITGLGYMFEADTPVKRLLNRVAVLMYRAALACVHTVFFQNEEDRAVFTAKGIVPAGTEVAMSRGTGVALDHFAPAETVTAPVTFLLVGRLIEAKGLYEYAEAARMLKARHPEARFRVLGPPEQGLGSVPMETINQWHREGVIEYMGQTRDVRPFLREASVVVLPSWREGTPCSVMEGMSMARAAIVTDAPGCREVVEDGVNGFMVPLRSPEALAAAMERFIEDPSLVQRMGRAGRDLAEREFDAEKVAAHIMRVMRLDAAPRAGGNPQ
MGSDKIHHHHHHMNVVVCIKQVPDTTNVRIDRKTNNLVREGVPSIINPDDERALELASQLKEKFGATVYVITMGPPQAKEALKDAIAFGLDEAVHLSDRTFAGADTLATTYTLYWGIKKIEERIGKIDLILTGKQAVDGDTGQVGPGLATRFGYALGAYVVRIEEIDPEKKEMVIVRRLDQGFEKIRLKLPAVLTITDELNKPRYADLPNLIRAIRYEPIVWTHKDLGLDPKKCGFFGSPTRVVSTNIPPARKGGDIISKNEDPEVAAEKLIEALKKFEAVRLVEALKPVLEGEKDE
MGSDKIHHHHHHMNYDDPKKKVGRNIKRLRLKAGIKSQAALAELCGWKSQSRVGNYEAGTRAVSAIDAETLAKVLNVTPAEILYGENNKDDDFVSMPSAQYSSGPYEEEDPFQLFKPKQELQNAEWHAGFELWDGDTPLRDDEVALPFYREVELAAGSGSTFVQENGGCKLRFAKSTLKKSRVEPSNAACVTVSGNSMLPVLRHGTTVGVDTSKKSIIDGEMYAIDHDGMLRVKMLYRTPGGGIRIKSYNNDEFPDEFIPPEKASDIKIIGWVFWWSVLNVWNN
MGSDKIHHHHHHMPAIIKQFFFKSHEMTLSDPRFLSLNQWLNAYFSDEVTPVLISGDASFRRYFRITTPDATFIAADSPPQLVPIAPFIALSNAYAAVGLTVPKVIHADAAQGFMLMSDLGDTQLLSVLNVQNVADYYRQALDLLPQVASVVASQHLDSGLVQPLPLYDEAFVRRELHIFTEWLLGTHLNLSLDESEQQMLSHSFDLLVDYALSQPSVGMHRDFHSRNLMLQAGELCVIDFQDAVVGPVTYDAVSLLRDCYIRWPQPLVADLMQYHYQQALALGFIPALTTLEQYQTWFDLMGLQRHIKAVGIFARLNYRDSKPAYMADIPLTLTYIVDIAMQYPELVPFAHWLTRRVLPAFTASQSLSEVKQ
MGSDKIHHHHHHMPAKIIDKIIEEIDKLPSPNVVVQRIIAVCSKPDASSTEVANTLMMDASLSARVLKLANSAYYGVPRKITTLSEAVMILGFKTVRNLALSVFTYDMVFKNSSSGIDREKLWEHFIASAIASETVAETMGYPLKEEIFIAGLLHDLGKVVYDLLFSDILETEAKIAQKTKKNLIDIEEELGIPPHSEVGAKLLRKWNFPDLLVLSAEFHHNVEGNPNELFVNQVSMVHIGDVIANLMMKGASLSWGDPKLSPFALNVLKVKPKTFLRILDKSKEKYNKAQEFLQID
MGSDKIHHHHHHMPANPLPDDDLADSDTDDTGSGEHGEGGEKVRSGIQSIEVGFRLLEVLTSEPRAMMLRDLAQRAGMSPAKAHRYLVSFSRLGVVSQDPVSGRYELGGFALQMGLARLARVDGVKLARIALTELRDRVDQTVGIAVWGNQGPTIVHWMESSHPAKASLKLGDVMPLLGSATGLLFAAYLPRSKTAAMLERELADTRRSPHHGGPRTLEEVDAVLADVRAHQAARVEGMLLPTIHAFCMPVFDAVGELALAIVALGQEGTFDIAWGGEMDTALRACAQKLSYELGYSPDARDA
MGSDKIHHHHHHMPDNPTIATLPDSQGHNHRADVQLNQLQCDSTKPNDIRPNAIMPSAIEPNAIKHESVVAEQKQKVIFIGLPRTGTTSVSVALLEQGLKVAHMAFTKAAFMQADAISDAPCFSDFKQLDKLFPDAKFVYIERELDSWVPSMQMLLSRMLPHLDAKSGRFHPIMKRSFRHSFGVGVVENPQDEQHLIDCYQRHKTEVVNYFAGRHDLLCIDVSQQGALGQLLAFMGLAATENQQNFPKLNVGRNVASWDEYKHPNKISANASGPDKRKFFDYKI
